# Results published in the RNAGym collection of RNA variant scans (doi:10.7554/elife.80360).
# B1: Hairpin Ribozyme (parent)
# chain: GUCCUCUUUCACGUGCGCGUGAAAGAGAGAAGUGAACCAGAGAAACACACGUUGUGGUAUAUUACCUGGUA
# Variants of: B1
# Assay: self-cleavage, relative activity (ratio to wild type); higher = more cleavage; co-transcriptional
row,Variant,self-cleavage
1,GUCCUCUUUCAUGUGCGCGUGGAAGAGAGAAGUGAACCAGAGAAACACACGUUGUGGUAUAUUACCUGGUA [C12U A22G],0.748
2,GUCCUCUUUCAUGUGCGCGUGUAAGAGAGAAGUGAACCAGAGAAACACACGUUGUGGUAUAUUACCUGGUA [C12U A22U],0.759
3,GUCCUCUUUCAUGUGCGCGUGAAAGAGAGACGUGAACCAGAGAAACACACGUUGUGGUAUAUUACCUGGUA [C12U A31C],0.204
4,GUCCUCUUUCAUGUGCGCGUGAAAGAGAGUAGUGAACCAGAGAAACACACGUUGUGGUAUAUUACCUGGUA [C12U A30U],0.136
5,GUCCUCUUUCAUGUGCGCGUGAAAGAGAGCAGUGAACCAGAGAAACACACGUUGUGGUAUAUUACCUGGUA [C12U A30C],0.193
6,GUCCUCUUUCAUGUGCGCGUGAAAGAGAGAAGUGAACCAGAGAAACACACGUUGUGGUAUAUUACGUGGUA [C12U C66G],0.126
7,GUCCUCUUUCAUGUGCGCGUGAAAGAGAGAAGUGAACCAGAGGAACACACGUUGUGGUAUAUUACCUGGUA [C12U A43G],0.0708
8,GUCCUCUUUCAUGUGCGCGUGAAAGAGAGAAGUGAACCAGAGUAACACACGUUGUGGUAUAUUACCUGGUA [C12U A43U],0.22
9,GUCCUCUUUCAGGUGCGCGUGAAAGAGAGAAGUGAACCAGAGAAACACACGUUGUGGUAUAAUACCUGGUA [C12G U62A],0.176
10,GUCCUCUUUCAGGUGCGCGUGAAAGAGAGAAGUGAACCAGAGAAACACACGUUGUGGUAUACUACCUGGUA [C12G U62C],0.235
11,GUCCUCUUUCAUGUGCGCGUGAAAGAGAGAAGUGAACGAGAGAAACACACGUUGUGGUAUAUUACCUGGUA [C12U C38G],0.235
12,GUCCUCUUUCAUGUGCGCGUGAAAGAGAGAAGUGAACCAGAGAGACACACGUUGUGGUAUAUUACCUGGUA [C12U A44G],0.201
13,GUCCUCUUUCAUGUGCGCGUGAAAGAGAGAAGUGAACCAGAGAUACACACGUUGUGGUAUAUUACCUGGUA [C12U A44U],0.0952
14,GUCCUCUUUCAUGUGCGCGUGAAAGAGAGAAGUGAGCCAGAGAAACACACGUUGUGGUAUAUUACCUGGUA [C12U A36G],1.17
15,GUCCUCUUUCAUGUGCGCGUGAAAGAGAGAAGUGAUCCAGAGAAACACACGUUGUGGUAUAUUACCUGGUA [C12U A36U],0.584
16,GUCCUCUUUCAUGUGCGCGUGAAAGAGAGAAGUGAACCAGAGAAUCACACGUUGUGGUAUAUUACCUGGUA [C12U A45U],0.163
17,GUCCUCUUUCAUGUGCGCGUGAAAGAGAGAAGUGAACCAGAGAAGCACACGUUGUGGUAUAUUACCUGGUA [C12U A45G],0.162
18,GUCCUCUUUCAUGUGCGCGUGAAAGAGAGAAGUGAACCAGAGAAACACACGUUGUGGUAUAUUACCUGGUA [C12U],0.887
19,GUCCUCUUUCAUGUGCGCGUGAAAGAGAGAAGUGAACCAGAGAAACUCACGUUGUGGUAUAUUACCUGGUA [C12U A47U],0.194

row,Variant,self-cleavage
1,GUCCUCUUUCAUGUGCGCGUGAAAGAGAGAAGUGAACCAGAGAAACGCACGUUGUGGUAUAUUACCUGGUA [C12U A47G],0.131
2,GUCCUCUUUCAGGUGCGCGUGAAAGAGAGAAGUGAACCAGAGAAACACACGUUGUGGUAUAUUACCCGGUA [C12G U67C],0.233
3,GUCCUCUUUCAUGUGCGCGUGAAAGAGAGAAGUGAAGCAGAGAAACACACGUUGUGGUAUAUUACCUGGUA [C12U C37G],0.27
4,GUCCUCUUUCAUGUGCGCGUGAAAGAGAGAAGUGAACCAGAGAAAUACACGUUGUGGUAUAUUACCUGGUA [C12U C46U],0.174
5,GUCCUCUUUCAUGUGCGCGUGAAUGAGAGAAGUGAACCAGAGAAACACACGUUGUGGUAUAUUACCUGGUA [C12U A24U],0.802
6,GUCCUCUUUCAUGUGCGCGUGAAAGAGAGAAGUGAACCUGAGAAACACACGUUGUGGUAUAUUACCUGGUA [C12U A39U],0.45
7,GUCCUCUUUCAUGUGCGCGUGAAAGAGAGAAGUGAACCCGAGAAACACACGUUGUGGUAUAUUACCUGGUA [C12U A39C],0.407
8,GUCCUCUUUCAUGUGCGCGUGAAAGAGAGAAGUGGACCAGAGAAACACACGUUGUGGUAUAUUACCUGGUA [C12U A35G],0.938
9,GUCCUCUUUCAUGUGCGCGUGAAAGAGAGAAGUGCACCAGAGAAACACACGUUGUGGUAUAUUACCUGGUA [C12U A35C],0.975
10,GUCCUCUUUCAGGUGCGCGUGAAAGAGAGAAGUGAACCAGAGAAACACACGUUGUGGUACAUUACCUGGUA [C12G U60C],1.04
11,GUCCUCUUUCAUGUGCGCGUGAAAGAGAGAAGUGAACCAGAGAAACACUCGUUGUGGUAUAUUACCUGGUA [C12U A49U],0.159
12,GUCCUCUUUCAUGUGCGCGUGAAAGAGAGAAGUGAACCAGAGAAACACCCGUUGUGGUAUAUUACCUGGUA [C12U A49C],0.169
13,GUCCUCUUUCAUGUGCGCGUGACAGAGAGAAGUGAACCAGAGAAACACACGUUGUGGUAUAUUACCUGGUA [C12U A23C],0.93
14,GUCCUCUUUCAUGUGCGCGUGAAAGAGAGAAGUGAACCAGAGAAACACACGUUGUGGUAUGUUACCUGGUA [C12U A61G],0.255
15,GUCCUCUUUCAUGUGCGCGUGAAAGAGAGAAGUGAACCAGAGAAACACACGUUGUGGUAUUUUACCUGGUA [C12U A61U],0.133
16,GUCCUCUUUCAUGUGCGCGUGAAAGAGAGAAGUGAACCAGAGAAACAUACGUUGUGGUAUAUUACCUGGUA [C12U C48U],0.126
17,GUCCUCUUUCAUGUGUGCGUGAAAGAGAGAAGUGAACCAGAGAAACACACGUUGUGGUAUAUUACCUGGUA [C12U C16U],0.916
18,GUCCUCUUUCAGGUGCGCGUGAAAGAGAGAAGUGAACCAGAGAAACACACGUUGUGGUAUAUUACCUGGAA [C12G U70A],0.728
19,GUCCUCUUUCAUGUGCGCGUGAAAGAGAGAAGUGAACCAGGGAAACACACGUUGUGGUAUAUUACCUGGUA [C12U A41G],0.676
